# Assay: yeast display, Sf9 membrane polyspecificity reagent, FACS + sequencing; frameworks hold sequencing errors
# Outline: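 Synthetic nanobody libraries on Saccharomyces cerevisiae BJ5465 were galactose-induced for 36–48 hours, stained 1 hour at 4 °C with 10% biotinylated, detergent-solubilized Sf9 membrane reagent and enriched on streptavidin microbeads. FACS then separated cells into low and high (top ~1%) gates by anti-HA (expression) and streptavidin (reagent binding) fluorescence. Genes were colony-PCR amplified, MiSeq 2 × 250 sequenced and CDR-length filtered. A clone's polyreactivity label is that of its gate of origin.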
row,Sequence,polyreactivity (PSR sort gate)
1,QAQLVESGGGLVQAGGSLRLSCAASGSIFVAYDKGWYREAPWKERELVAAINFDGTSTYYADSVKGRFTISRDNAKNTVYLQMNSLKPEDTAVYYCNKRVSPTFTGQYDYWGQGTQVTVSS,low polyreactivity
2,QVQLVESGGGLVQAGGSLRLSCAASGRTLQGYAMGWYRQAPGKERELVAAISRGGGSTYADSVKGRFTISRDNAKNTVYLQMNSLKPEDTAVYYCAAVRGIYGGHYFRYEYWGQGTQVTVSS,high polyreactivity
3,QVQLVESGGGLVQAGGSLRLSCAASGLTFYRYAMGLYRQAPGKERELVAGITRRGGSTYYADSVKGRFTISRDNAKNTVYLQMNSLKPEDTSVYYCNVDGISSSYPELDYWGQGTQVTVSS,low polyreactivity
4,QVQLVESGGGLVQAGGSLRLSCAASGIILFRYAMGWYRQAPGKERELVAAISWSGGSTYYADSVKGRFTISRDNAMNTVYLQMNCLKPEDTAVYYCAADHKYYGFGEVDYWGQGNQVTVSS,high polyreactivity
5,QVQLVESGGGLVQAGGSLRLSCADSGFIFVDYVMGWYRQSPGKERELVASISASGGTTYYADSVKGRLTISLDNAKNTVYLQMNSLKPEDTAVYYCNARWSPVNLRYGREGDYWGQGTQVTVSS,high polyreactivity
6,QVQLVESGGGLVQAGGSLRLSCAASGFTFLRYAMGWYRPAPGKERELVAVITYGGGSTYYADSVKGRFTISRDNAKNTVYLQMNSLKPEDTAVYYCALYPRRAGGDYWGQGTQVTVSS,high polyreactivity
7,QVQLVESGGGLVQAGGSLRLSCAASGIIFPVYTKGWYRQAPGKERELVAAISTSGGRTYYADSVKGRFTISRDNAKNTVYLQMNSLKPEYTAVYYCAAKRYTRKAGYYYWGQGTQVTVSS,high polyreactivity
8,QVQLVESGGGLVQAGGSLRLSCAASGFIFYRYAMGWYRQAPGKERELVAAITGSGARTYYADSVKGRFTISRDNAKNTVYLQMNSLKPEDTAVYYCAARYILSKYGSGVRYNYWGQGTQVTVSS,high polyreactivity
9,QVQLVESGGGLVQAGGSLRLSCAASGFIFRRNAMGWYRQAPGKERELVAAISTRGGITYYADSVKGRFTISRDNAKNTVYLQMNSLKPDDTAVYYCAVVFVWGWPGYYWGQGTQVTVSS,high polyreactivity
10,QVQLVESGGGLVQAGGSLRLSCAASGIIFRIYAMGWYRQAPGKEREFVAAISGSGDSTYYADSVKGRFTISRDNAKNTVYLQMNSLKPEDTAVYYCAARAIFRQGDRIYDSWGQGTQVTVSS,high polyreactivity
11,QFQLVESGGGLVQAGGSIRLSCAASGSTFTIYAMGWYRQAPGKERELVAAISGTGGTKYADSVKGRFTISRDNAKNTVYLQMTSLKPEDTAVYYCAARYMLWDGDSWTEFDYWGQGTQVTVSS,low polyreactivity
12,QVQLVESGGGLVQAGGSLRLSCAASGRTFRRYAMGWYRQAPGKERELVASISRTGGSTYYADSVKGRFTISRDNSKNTVYLQMNSLKPEDTAVFYCNAGPSVGWYNYWGQGTQVTVSS,high polyreactivity
13,QVQLVESGGGLVQAGGSLRLSCAASGRTFYYYYTMGWYRQPPGKETELVAAISRSGSTNYADSVKGRFTISRDNAKNTVYLQMNSLKPEDTAVYYCARSYRSDGSRFGYWGQGTQVTVSS,low polyreactivity
14,QVQLVESVGGLVQAGGSLRLSCAAYGYTFYSNAMGWYRQAPGKDRELVASIRSRGRSTYYADSVKGRFTISRDNAKNTVYLQMNSLKPEDTAVYYCAPLPNNPAVYAYDYWGEGTQVTVSS,low polyreactivity
15,HVQLVESGGGLVQAGGSLRLSCAASGFISVRNGMGWYRQAPGKERELVAAITGSGGSTYYADSVKGRFTISRDNAKNTVYLQMNSLKPEDTAVYYCARTYTVSRKRMGYWGQGTQVTVSS,high polyreactivity
16,QVQLVESGGGLVQAGGSLRLSCAASGRTFTYYAMGWYRQAPGKERELVAAISRGGGSTHYADSVKGRFTISRDNEKNTVYLQMNSLKPEDTAVYYCAARYSTRYKYDYWGQGTQVTVSS,high polyreactivity

row,Sequence,polyreactivity (PSR sort gate)
1,QVQLVESGGGLVQAGGSLRLSCAASRYIFAHYAMGWYRQAPGKERELVAAISTRGGSTYYADSVKGRFTISRDNAKNTVYLQMNSLKPEDTAVYYCNNYRYAGITAEFYYWGQGTQVTVSS,high polyreactivity
2,QVQHVESGGGLVQAGGSHRLSCAASGRTFDTNDMGWYRQPPGKERELVAVITARGGNTSYADSVKGRFTISRDNAKNPVYLQMNSLKPEDTAVYYCAAESQSTSYGLDYWGQGTQVTVSS,low polyreactivity
3,QVQLVESGGSLVQAGGSLRLSCAASGRIFITNAMGAYRQAPGKERELVAAIRRRGGNTYYADSVKGRFTISRDNAKNTVYLQMNSLKPEDTAVYYCAVYPRPYKYNYWGQGTQVTVSS,high polyreactivity
4,QVQLVESGGGLVQAGGSLRLSCAASGSIFTQYAMGWSRQAPGKERELVAVITTGSSTYYADSVKRRFTISRDNAKNTVYLQMNSLKPEDTSVYYCAVRTATRSPRRYGYWGQGTQVTVSS,high polyreactivity
5,QVQLVESGGGLVQAGGSLRLSCAASGRIFKRYDMGWYRQAPWKERELVAAITGTGGSTYYADSVKGRFTISRDNAKNTVYLQMNSLKPEDTAVYYCAARLYNTYSGFAFGYWGQGTQVTVSS,high polyreactivity
6,QVQLVESGGGLVQAGRSLRLSSAASGSIVAPNPMGWYRQAPGKEREYVAAITLDDGRTYYADSVKGRFTISRDNSNNTVYLHMNSRKPEDTAVYYCNAEWRGYSVYWRTRYDSWGQGTHVTVSS,low polyreactivity
7,QVQLVESGGGLVQAGGSLRLICAASGSNFVGYAMGWYRQAPGKERELVAAISRTGASTYYADSVKGRFTISRDNAKNTVYLQMNSLKPEDTAVYYCAYYYSIYDYWGQGTQVTVSS,high polyreactivity
8,QVQLVESGGGLVQAGGSLRLSCAASGINFDTNAIGWYRQAPGKERELVATITQRGGTTYYADSVKGRFTISRDNAKNTVYLQMNSLKPEDTAVYYCNAGPVGLPYDSWGQGTQVTVSS,low polyreactivity
9,QVQLVESGGGLVQAGGSLRLSCAASGITFGPNAMGWYRQAPGKERELVAAISWRGGSTYYADSVKGRFTISRDNAKNTVYLQMNSLKPEDTAVYYCAKVQIPASYIRYDYWGQGTQVTLSS,low polyreactivity
10,QVQLVESGGGLVQAGGSLRLSCAASGRILYAYTMGWYRQAPGKERELVATISRSGGNTYYADSVKGRFTISRDNAKNTVYLQMNSLKPEDTAVYYCAVGKYGTQRVKLYQYRYNYWGQGTQVTVSS,high polyreactivity
11,QVQLVESGGGLVQAGGSLRLSCAASGRTFASNAMGWSRQAPGKERELVAAITRGGSTNYADSVKGRFTISRDNAKNTVYLQMNSLKPEDTAVYYCAARLSSGFRSYYYWGQGTQVTVSS,high polyreactivity
12,QVQLVESGGGLVQAGGSLRLSCAASGRTFLTNAMGWYRQAPGKERELVAAISGGGDDTFYADSVKGRFTISRDNAKNTVYLQMNSLKPEDTAVYYCAADWYTPGWRKEEEYWGQGTQVTVSS,low polyreactivity
13,QVQLVESGGGLVQAGGSLRLSCAASGSTFGLNAMGWYRQAPGKERELVAAITSGGTYYADSVKGRFTISRDNAKNTVYLQMNSLKPEDTAVYYCAADGTWSIYGGLYYWGQGTQVTVSS,low polyreactivity
14,QVQLVESGGGLVQAGGSLRLSCDASGRTFASNVMGWYRQAPGKERELVAAISRRGGSTYYADSVKGRFTISRDNAKNTVYLQMNSLKPEDTAVYYCNADDKAQSDYWGQGTQVTVSS,high polyreactivity
15,QVQLVESGGGLVQAGGSLRLSCAASGFIFNHYAMAWYRQAPGKEREFVAAISWSGGSTYYADSVNGRFTISLDNAKNTVYLQMNSLKPEDTAVYYCGASYNGLWHGDYDYWGQGTQVTVSS,low polyreactivity
16,QVQLVESVGGLVQAGGSLRLSCAASGSIFKYYAMGWYRQEPGKERELVAAITIGGNTNYADSVKGRFTISRDNAKNTVYLQMNSLKPEDTAVYYCATGGYYSAIVYGGYDYWGQGTQVSVSS,low polyreactivity

# — the nanobody polyreactivity screen of Harvey et al. (2022)
